Reference: a protein production outcome set (Wang et al. 2014)

Experiment: label from the status in PepcDB records
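Further: failed if final PepcDB status was selected cloned or expressed and not failed if soluble or beyond.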

Row | Sequence | protein production
1 | MHVSSGRWVYGLFLALLTALLWGILPIKLKQVLQVMDPVTVTWFRLTVSGGCLLAYLAAVGRLPRWRVLGPKGIWLVPISVCGLVGNYVLYLMGLNLLSPGTAQLVVQMGPILLLIASLFVFKERFSLGQGLGLLVLLIGFGLFFNQRLSELLTSLSDYTAGVLTILAASAVWTFYALGQKQLLSVWNSLQVMMVIYLFCALLLTPWAHPLEALEVNPLQGWLLLGCCLNTLIAYGAFAEALAHWEASRVSATLAITPLVTFVAVAWAAWLWPEYVQAEQINGLGYGGALLVVLGSALTALGPSLMAGLRARRQRIAAG | failed
2 | MLEIVAAIFIVLLGSGICSCAEAALFSVPLVKVRQLSQSNNPSAIALQAIRHRMNRPIGTIVVLNNIFNIVGSITIGALATKHLQDAWMGVFSGILTLLIIVFGEIIPKTLGERYATNIALLIAIPVRFLTLIFTPLVWLIEQITNPFTHGKRVPSTNEAEIKFLATLGYKEGVIEGDEEQMIQRVFQLNDLMAVDLMTPRVIITYLLGELTLAECQQDIIQSQHTRILIVDEYIDEVLGIALKQDLLTALIQGEGYKTIAELARPAQFVPEGMRADKLLKQFQEKREHLMVVIDEYGGVAGVITLEDVVEVLTGEIVDETDKNIDLQEIARKKRQALLKQRGVAP | failed
3 | MNGRVDYLVTEEEINLTRGPSGLGFNIVGGTDQQYVSNDSGIYVSRIKENGAAALDGRLQEGDKILSVNGQDLKNLLHQDAVDLFRNAGYAVSLRVQHRLQVQNGPI | not failed
4 | MSVPLILTLLAGAATFIGAFLGVLGQKPSNRMLAFSLGFAAGIMLLISLMEMLPAALDTEGMSPVLGYGMFIIGLLGYFGLDRLLPHAHPQDLVQKRQQPLPGSIKRTAILLTLGISLHNFPEGIATFVTASSNLELGFGIALAVALHNIPEGLAVAGPVYAATGSKRTAIFWAGISGMAEILGGVLAWLILGSLVSPIVMAAIMAAVAGIMVALSVDELMPLAKEIDPNNNPSYGVLCGMSIMGLSLVILQTIGIG | failed
5 | MAETLITKPPLSLSFTSLSSMLPSLSLSTANRHLSVTDTIPLPNSNSNATPPLRIAIIGFGNYGQFLAETLISQGHILFAHSRSDHSSAARRLGVSYFTDLHDLCERHPDVVLLCTSILSIENILKTLPFQRLRRNTLFVDVLSVKEFAKTLLLQYLPEDFDILCTHPMFGPQSVSSNHGWRGLRFVYDKVRIGEERLRVSRCESFLEIFVREGCEMVEMSVTDHDKFAAESQFITHTLGRLLGMLKLISTPINTKGYEALLDLAENICGDSFDLYYGLFVYNNNSLEVLERIDLAFEALRKELFSRLHGVVRKQSFEGEAKKVHVFPNCGENDASLDMMRSEDVVVKYEYNSQVSGSVNDGSRLKIGIVGFGNFGQFLGKTMVKQGHTVLAYSRSDYTDEAAKLGVSYFSDLDDLFEEHPEVIILCTSILSTEKVLESLPFQRLKRSTLFVDVLSVKEFPRNLFLQTLPQDFDILCTHPMFGPESGKNGWNNLAFVFDKVRIGMDDRRKSRCNSFLDIFAREGCRMVEMSCAEHDWHAAGSQFITHTVGRLLEKLSLESTPIDTKGYETLLKLVENTAGDSFDLYYGLFLYNPNAMEQLERFHVAFESLKTQLFGRLHSQHSHELAKSSSPKTTKLLTS | failed
6 | MSDVAATAQRQQVRQQGLILGLVTLPFRCFGVLCGSLFLCIVIECIGMALFWPDQGWRHAQAMLGHELDQLSDYFVRSALVQEPGRTAHQWIQHAYEWAFVRSGLLEWMQDASRQARAGASGRPWSLPQVLATVSMHAEGYLIAAAYTVLLFLVRLLMLCLTLPLFALAAFVGLVDGLVRRDIRRFGAGRESGFLYHRARASLVPLAVLPWVTYLALPVRVHPVVILLPSAVLLGVAVDIAAGSFKKYL | failed
7 | MKDVTIYHNPRCSKSRETLALVEQQGITPQVVLYLETPPSVDKLKELLQQLGFSDARQLMRTKEDLYKTLNLDDRGLTQDQLLQAMADNPKLIERPIVVTQGKARIGRPPEQVLEILK | not failed
8 | PVGWQCPGCTFINKPTRPGCEMCCRARPEAYQVPASYQP | not failed
9 | MISDLPDDLESEILSRVPTKSLAKLQTMGNTRLVVWDSSTGETRWIKPRTRFRNDDYYGLGYVNSKSSGHSFKILRSCYYRNDQKQWVAEFEIYEFGSDTWRVLDYFTHDYGVFSSGGPLKRNTYWVAGDKEMGMFMLYFDFTRERFGHFPLPFKSFNREDTASLSVVREEKLSVLHQKILEFSNEMKIWLTNKIDETIELSWSNFVLTVDYDKFNLPSVVNVASFLLDEENKVAVCSDIDVDDENRTRVYVVGEDIYKQVYKDTTKASYFNCSTSCSIYW | failed
10 | MTPQFRALLVHLFTATGAVFAMLAMLAAVDAKWDLMFLWLVVAFFVDGLDGPMARRYHVKTYAPEFDGVLLDLIIDYLTYVFIPAFALFKSGLMDGWTGWLAIIIITFASAMYFADTRMKTKDNSFSGFPGCWNMVVLVIFALEPNFWVSLVLVTVLAVSMFLPLKFVHPVRTERWRAITLPMALAWTFFAGWAAWVGFHPESWAHWGLVVTSLYLIFAGIAQMVIPEKDTASPF | failed
11 | MSASVVCVVGNPNCGKTTLFNALTGGRQSVGNWPGVTVEKKVGAYRHGGEAVTIVDLPGVYSLTPTSSSSEDERVARDYILSGEAGLVLNIVDASNLERNLYLTAQLLEMRVPMVVIVNMMDIAASRHLDIDIDALSKSLDCKVVPMVASRRRGLDDLREVIAQSMGRTTPPAASAPYPPAVSEAVGRIAATLPADSRADRRWTALQLLEGDSTLLRDLPPATALALESDLKQAAQSGTEDFDILIADARYGFVGAIALGAVIRKGQMSRTLTDRIDKVVLHRVLGIPIFLAMMYLMFVFTINVGGAFIDFFDQFAGTLFVDGFGHLLGGAGAPDWLTALLAKGVGGGVQTVATFIPVIGFLYLFLSVLEDSGYMARAAFVMDRFMRGIGLPGKAFVPLIVGFGCNVPAVMATRTMDSRRDRLITVMMAPFMSCGARLPVYVLFAAAFFPSGGQNLVFALYLIGILVAIATGLLLKTTALRGEASPFVMEMPPYHLPTVAGILLRTWDRLKSFILRAGKLVVAVVVVLSFLNSWGTDGSFGNEDTDKSVLAAIGKAIVPVFAPMGISEENWPATVGVFTGIFAKEAVVGTLDALYGTIAEGNAAAAQAEADPEAAATEEPEAFDLWGGLAGAFATIPANLSNVAGALADPLGIEVGDLSDRSAVAADQEISTSSIDAIALLFDGAIGAFAYLLMVLLYMPCVAAVSAIWREVGTRWTLFAAAWTTGMGYGAAVLTYQIGTFSRHPVSSAVDIAVVLAVLAAAIALLRLAGRGSAEAGPISAGQTAS | failed
12 | MSRPTVSVIIPTHNRAKLLKRAIISVLNQTFEDFEIIVVDDASSDNTPNIIESIKDSRIRYIRLEKNSGAPTARNIGIKKARGKFIALLDDDDEWLPRKLEVQVKKFNELEKKFGVVYGGFYYVSQQNERIIGKRLPRFRGNVYGELLKENFIGSPTVLIRRECFKKAGLFDPKLPSSQDWDMWVRIARYYYFDYIVAKYYVHGHQISFNINEKYIPGREIFISKHKDIANNPKILSMHLTQMGLLSILGGNIEKGVKYLAQSITISPLNIDSYKKVIELTLDSRFLEYVKNILHANYLEHHHHHH | failed
13 | MTIKSLLSDIEREERNVHKAIKDSVKRNDLVTAKALAREIVSSRRTVKRLYENKAQVNSISMHLGESIATAVTVGNLSKSGEVMKLVNSLMKAPEIAVTMQAFSKEMTKTGVIEEFVSDAVDNALDSEDIEEEIEEEVDKVLTAIAGETAAELPEAVRKQKMNVPAQKAETLHGEDAIVEGVDAEEELEAIRYRLANVRS | failed
14 | MNPITELLDATLWIGGVPILWREIIGNVFGLFSAWAGMRRIVWAWPIGIIGNALLFTVFMGGLFHTPQNLDLYGQAGRQIMFIIVSGYGWYQWSAAKRRALTPENAVAVVPRWASTKERAGIVIAAVVGTLSFAWIFQALGSWGPWADAWIFVGSILATYGMARGWTEFWLIWIAVDIVGVPLLLTAGYYPSAVLYLVYGAFVSWGFVVWLRVQKADKARALEAQESVTV | failed
15 | MEHSGTSEVTGADTAGPDPQLAVTMGFTGFGKKARTFDLEAMFEQTRRTAVERSRKTLEAREKEEEMNREKELRKQIEDMEPAPSSSSAARERSQSSCRDTSSSDSESDDSSDSSDDELIGPPLPPKMVGESVTTVDEGTLGPLPPPLCEEGEDDDDDELDDEGEEDNPVQRIPDSHEITLRHGTKTVSALGLDPSGARLVTGGYDYDVKFWDFAGMDASFKAFRSLQPCECHQIKSLQYSNTGDMILVVSGSSQAKVIDRDGFEVMECIKGDQYIVDMANTKGHTAMLHTGSWHPKIKGEFMTCSNDATVRLWEVENPKKQKSVFKPRTMQGKKVIPTTCTYSRDGNLVAAACQNGSIQIWDRNLTVHPKFHYKQAHDPGTDTSCVAFSYDGNVLASRGGDDTLKLWDVRQFNKPLFSASDLPTLFPMTDCCFSPDDKLIVTGTSVQRGCGSGKLVFLERRTFQRVYEIHITDASVVRCLWHPKLNQIMVGTGNGLAKVYYDPNKSQRGAKLCVVKTQRKAKQAETLTQDYIITPHALPMFREPRQRSTRKQLEKDRLDPLKSHKPEPPVAGPGRGGRVGTHGGTLSSYIVKNIALDKTDDSNPREAILRHAKAAEDNPYWVSPAYSKTQPKTMFAQVESDDEESKNEPEWKKRKI | failed
16 | MEQKILSSEPRRSFSNEFKLQMVKLASQPGAXVARIAREHDINDNLLFKWLRLWQNERRISRRLPVTTSSGAGVELLPVEITPDEQKEPMAALTPLLSTPSQSTVSASSCKVEFRHGNMTLENPSPELLTVLIRELTGRGR | failed
17 | MPMNISNTKERILAVAEALIQKDGYNAFSFKDIATAINIKTASIHYHFPSKEDLGVAVISWHTDKIAAVLSDISNNSSLSAKEKIQKFFDAILTLTYNSENKMCLGGMFASDFQSLPVSIQNQAKKFFELIIEWLKGVLETNGYDNESSLSLAKQIISLVEGGLLLARLYGDETFLEGVRHFIDQTIK | not failed
18 | MKSILEQLSSMTVVVADTGDLDSIKKFQPRDATTNPSLILAAAKNPDYVKLIDKAIESSENTLPNGFSEIELIKETVDQVSVFFGKEILKIISGRVSTEVDARLSFDTEATVKKARKLINLYKNFGIEKERILIKIAATWEGIKAAEILEKEGIKCNLTLLFNFCQAVTCANANITLISPFVGRILDWHKAKTGKTSFIGAEDPGVISVTQIYKYFKEKGFKTEVMGASFRNLDEIKELAGCDLLTIAPKFLEELKREKGVLIRKLDASTKINNSIDYKFEEKDFRLSMLEDQMASEKLSEGITGFSKAIEELEELLIERLSEMKNHKLISAN | not failed
19 | MSRYIEAGLSDIGTLGEYVAERPNKGFEPARRRAGVSHTTVSGPKLAVAVMAVSAVCCPCGCQCVLVTPLSPRSFTLCAHIIDTMNTLVDGEWRTDAYETTNEDGAFDRQDTTFRDRVEDDPDARFQPEAGRYHLYACRACPWAHRILVARKLLGLEDAITVDYVDPFRGEDGWQFTPEKAGCTPDTVNGSDYLREVYVEADPDATCRVTVPVLWDKQEETIVNNESEEILRMLDTEFDDVSDNDVDLYPEGYQDEVDRIIDDIYEPINNGVYRSGFADSQSAYDEAVEELFDALDHWDTVLEDQRFLAGDRLTEADICLFTTLVRFDEVYHTHFMCNHKLIREYDNLWPYLRDLYQLPGVAETVNMDHITEHYYTTHPDVSPKRIVPMGPDPDFEAVHDRDELPGDLPETLFPTA | failed
20 | GKKIKYDTPLSTLVIAPPGTGKTSAIIIPNLLSIPNSQVVIDVKGEICSLTAGYRQKKLLNQVFIFNPFGEDSNFHFNPFNLERMSKLGFAEKTAIVRQVGSTIFPKPKDEKDSHWRETAKTFFEFAAMHNIEKYGYTTLYEIYRFPKKDWTDELEDKYFDEKEKREELGEEVNTFRLLLRQIAENETLHDNIRDDARRFLGTPANEFGSVLSTFSTKMSIFGDLRVKELTDQNSFMPERLREDNITLYIKCLEKDIPSLSPIIRILLETIVKELMSRESTDPKERIYLELDEVMRFGELDFMIELPSISRSYNLPNIFAAQSYAQIRKHYSQEDLEIMLDTVAYQVVFRANRQQAAEDISKEVGDFTAHKKTTSSQDIKILQSYSTSEEAKRLVTAQDILNIPKDKVLILATGHKATPILAQANFYFKDRTERQKTKIKKE | failed
